We go through one molecule from publication PMC3357421, “Conserved Orb6 Phosphorylation Sites Are Essential for Polarized Cell Growth in Schizosaccharomyces pombe” (PLoS ONE, 2012).

This experiment deals with T1, His6-HA-Nak1 (S. pombe, UniProt O75011 1-652).
T1 construct: Nak1, Ser/Thr kinase of fission yeast (Schizosaccharomyces pombe); HA-Nak1 inserted into pET33b; also called pET33b-His6-HA-Nak1; source: E. coli BL21, purified (NiNTA agarose)
T1 sequence (looked up): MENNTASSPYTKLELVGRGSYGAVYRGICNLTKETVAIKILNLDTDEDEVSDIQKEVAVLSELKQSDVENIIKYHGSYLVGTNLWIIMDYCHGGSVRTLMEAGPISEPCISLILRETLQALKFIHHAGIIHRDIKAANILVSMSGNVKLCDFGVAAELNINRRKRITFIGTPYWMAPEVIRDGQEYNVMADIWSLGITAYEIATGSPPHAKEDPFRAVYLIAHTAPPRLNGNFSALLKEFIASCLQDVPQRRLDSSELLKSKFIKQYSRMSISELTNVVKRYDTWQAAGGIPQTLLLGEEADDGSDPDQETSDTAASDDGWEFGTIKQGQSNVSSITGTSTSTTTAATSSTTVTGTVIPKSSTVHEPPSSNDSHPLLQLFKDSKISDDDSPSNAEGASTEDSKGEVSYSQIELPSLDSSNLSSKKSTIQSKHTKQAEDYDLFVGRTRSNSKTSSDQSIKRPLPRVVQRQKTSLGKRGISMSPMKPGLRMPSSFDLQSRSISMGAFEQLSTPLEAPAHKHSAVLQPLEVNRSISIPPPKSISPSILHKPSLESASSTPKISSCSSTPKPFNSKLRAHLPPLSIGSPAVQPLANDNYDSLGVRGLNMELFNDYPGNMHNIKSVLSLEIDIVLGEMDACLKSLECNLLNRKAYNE
Kind of experiment: pull-down; GST or GST-Orb6 bound to Glutathione Sepharose 4B beads incubated with His6-HA-Nak1 for 2 h; washed 3 times with 150 mM NaCl, 1 mM DTT, phosphate pH 7.3; western blot with anti-HA (12CA5). The conditions noted are these: both partners purified.

B1: GST-Orb6 (enzyme, S. pombe, UniProt O13310 1-469, looked up)
chain: MDKNDYLHFERNPSLFPKSTLDKVQKTKKYIEHYYKVAVDHAVERNQRRINLEQRLATERGSEERKNRQLRASGEKESQFLRFRRTRLSLEDFSTIKVIGKGAFGEVRLVQKLDTGKIYAMKSLLKTEMFKRDQLAHVKAERDLLVESDSPWVVSLYYAFQDSLYLYLIMEFLPGGDLMTMLINYDTFSEDVTRFYMAECVLAIADVHRMGYIHRDIKPDNILIDRDGHIKLSDFGLSTGFYKQDQSASYMKPRTGNTVKRGQMVDAIWLTMSSKDKMATWKKNRRVMAYSTVGTPDYIAPEIFLQQGYGQDCDWWSLGAIMFECLIGWPPFCSENSHETYRKIINWRETLTFPNDIHLSIEARDLMDRLMTDSEHRLGRGGAIEIMQHPFFTGIDWDHIRETAAPFIPNLKSITDTHYFPVDELEQVPEQPVTQQPASVDPQTLEQTNLAFLGYTYKKFNYLTMKGAL
notes: Orb6, Ndr-related Ser/Thr kinase of fission yeast (Schizosaccharomyces pombe); PCR-amplified cDNA fragment encoding Orb6 in pGEX-5X-1 (a pGEX-6p-1 construct was also made); also called pGEX-5X-1-Orb6; source: E. coli BL21, purified (Glutathione Sepharose 4B)
Turning to B1, the binding result is “binds”.
